Measured values taken from publication PMC10636207.

Target: T1, DcuR-His6 (Escherichia coli O157:H7 EDL933?) (UniProt P0AD02)
T1 sequence: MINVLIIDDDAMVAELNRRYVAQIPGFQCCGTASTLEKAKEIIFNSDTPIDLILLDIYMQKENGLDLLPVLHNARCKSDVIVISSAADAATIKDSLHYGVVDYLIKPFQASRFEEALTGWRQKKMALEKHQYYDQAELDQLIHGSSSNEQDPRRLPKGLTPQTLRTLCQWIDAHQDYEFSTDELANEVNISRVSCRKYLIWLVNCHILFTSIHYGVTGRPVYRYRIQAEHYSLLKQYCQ
Assay: EMSA

| Sequence | binding |
| --- | --- |
| AGATTCATCTGCAGGCTCTGAAGTAAGTATACGTGTGAATATTATTGCTTGAAAAAGCGTATTGGATAATATATACAGTATATGTACTTTATGTACATTGCAACTATTTAAATAATATAATAGTTGCCTATGGGATAATTTGGTTATTTATAACCAGGTAAATGTCTAAATTAGACAAAAGGAGAAAGATCAATGGAAGCAGCAAATTTAAGTCCTTCTGGTGCAGTAATG (double strand) [PLEE2/3] | no binding |
| CATTAGCCATTGGAAACTCACGTAATCATTAATTATGAATATTCCATTAAATAGTACTGTACAACAGCTTCCTTTCTACTCTATTCTTAGACGATGTAAGTTCACCATATTTTTTCTCATTGTTCAACCACCAGGATGAATAAAATTTAAAAATGTTATCCTCATATAAAATAAAACTTCTCAATGGTGCGATGCG (double strand) [PLEE4] | no binding |
